From PMC12315501 (2025)

Biological target: recombinant NbRab‐G3c protein (Nicotiana benthamiana)
Assay: ITC

B1: recombinant Pi17063 protein (natural protein)
chain: ASADSNERLVRAVYSTVRSRDLATDDGPKHTKRFLRGESSKIVNLKQEEGVFEERKGVSQKLTKALQAIKARYLKWEQKVLVPGFKKMAEKGVTYSELRDTFRVRMMNSGRWGTPSGFKRYARLYSEWLHRTGRSHLAK
Kd: 1480 nM
